These results are taken from patent US20220047716A1 (SUTRO BIOPHARMA, published 2022).

To fix the notation:
B1: SRP1848-B10 (antibody, V domains shown)
VH: EVQLVESGGGLVQPGGSLRLSCAASGFNTTTKSIHWVRQAPGKGLEWVGEIYPRDGITDYADSVKGRFTISADTSKNTAYLQMNSLRAEDTAVYYCARGGWHWRSGYSYYLDYWGQGTLVTVSS
VL: not shown
B2: SRP1848-F05 (antibody, V domains shown)
VH: EVQLVESGGGLVQPGGSLRLSCAASGFNISKSSIHWVRQAPGKGLEWVGEIYPNDGSTDYADSVKGRFTISADTSKNTAYLQMNSLRAEDTAVYYCARGSWAWRSGYSYFLDYWGQGTLVTVSS
VL: not shown
B3: SRP1848-D10 (antibody, V domains shown)
VH: EVQLVESGGGLVQPGGSLRLSCAASGFNISRNSIHWVRQAPGKGLEWVGWISPNDGTTDYADSVKGRFTISADGSKNTAYLQMNSLRAEDTAVYYCARGAWSWRSGYGYYIDYWGQGTLVTVSS
VL: not shown
B4: SRP1848-F01 (antibody, V domains shown)
VH: EVQLVESGGGLVQPGGSLRLSCAASGFNIRTYSIHWVRQAPGKGLEWVGSIFPNDGTTDYADSVKGRFTISADTSKNTAYLQMNSLRAEDTAVYYCARGSWAWRAGYSYYLDYWGQGTLVTVSS
VL: not shown
B5: SRP1848-B11 (antibody, V domains shown)
VH: EVQLVESGGGLVQPGGSLRLSCAASGFNIGNNSIHWVRQAPGKGLEWVGDISPIDGFTDYADSVKGRFTISADTSKNTAYLQMNSLRAEDTAVYYCARGSWSWRAGYGYYLDYWGQGTLVTVSS
VL: not shown
B6: SRP1848-D05 (antibody, V domains shown)
VH: EVQLVESGGGLVQPGGSLRLSCAASGFNISISYIHWVRQAPGKGLEWVGGISPIDGYTDYADSVKGRFTISADTSKNTAYLQMNSLRAEDTAVYYCARGSWSWRAGYGYYLDYWGQGTLVTVSS
VL: not shown
B7: SRP1848-C07 (antibody, V domains shown)
VH: EVQLVESGGGLVQPGGSLRLSCAASGFNIRKYSIHWVRQAPGKGLEWVGDIFPIDGITDYADSMKGRFTISADTSKNTAYLQMNSLRAEDTAVYYCARGSWSWPAGYGYYQDYWGQGTLVTVSS
VL: not shown
B8: SRP1848-D04 (antibody, V domains shown)
VH: EVQLVESGGGLVQPGGSLRLSCAASGFNISHYSIHWVRQAPGKGLEWVGEIYPRDGITDYADSVKGRFTISADTSKNTAYLQMNSLSAEDTAVYYCARGYWFWRSGYGYYLDYWGQGTLVTVSS
VL: not shown
B9: SRP1848-C03 (antibody, V domains shown)
VH: EVQLVESGGGLVQPGGSLRLSCAASGFNIGVYSIHWVRQAPGKGLEWVGEIYPIDGNTDYADSVKGRFTISADTSKNTAYLQMNSLRAEDTAVYYCARGSWAWRSGYSYYLDYWGQGTLVTVSS
VL: not shown
B10: SRP1848-E02 (antibody, V domains shown)
VH: EVQLVESGGGLVQPGGSLRLSCAASGFNIGKYSIHWVRQAPGKGLEWVGEIYPNDGNTDYADSVKGRFTISADTSKNTAYLQMNSLRAEDTAVYYCARGSWSWRSGYGYYLDYWGQGTLVTVSS
VL: not shown
B11: SRP1848-E07 (antibody, V domains shown)
VH: EVQLVESGGGLVQPGGSLRLSCAASGFNIRKSSIHWVRQAPGKGLEWVGEIFPYDGSTDYADNVKGRFTISADTSKNTAYLQMNSLRAEDTAVYYCARGAWSWRSGYGYYIDYWGQGTLVTVSS
VL: not shown
B12: SRP1848-C01 (antibody, V domains shown)
VH: EVQLVESGGGLVQPGGSLRLSCAASGFNIGNSYIHWVRQAPGKGLEWVGGVTPNDGYTDYADSVKGRFTISADTSKNTTYLQMNSLRAEDTAVYYCARGSWFWRAGYGYYLDYWGQGALVTVSS
VL: not shown
B13: SRP1848-E05 (antibody, V domains shown)
VH: EVQLVESGGGLVQPGGSLRVSCAASGFNIGVYYIHWVRQAPGKGLEWVGGITPNDGYTDYADSVKGRFTISADTSKNTAYLQMNSLRAEDTAVYYCARGFWAWRSGYGYYLDYWGQGTLVTVSS
VL: not shown
B14: SRP1848-D02 (antibody, V domains shown)
VH: EVQLVESGGGLVQPGGSLRLSCAASGFNISHNYIHWVRQAPGKGLEWVGGITPQDGYTDYADSVKGRFTISADTSKNTAYLQMNRLRAEDTAVYYCARGAWSWRAGYGYYLDYWGQGTLVTVSS
VL: not shown
B15: SRP1848-C10 (antibody, V domains shown)
VH: EVQLVESGGGLVQPGGSLRLSCAASGFNIRTYYIHWVRQAPGKGLEWVGGISPIDGYTDYADSVKGRFTISADTSKNTAYLQMNSLRAEDTAVYYCARGSWSWPAGYGYYLDYWGQGTLVTVSS
VL: not shown
B16: SRP1848-E01 (antibody, V domains shown)
VH: EVQLVESGGGLVQPGGSLRLSCAASGFNITNKYIHWVRQAPGKGLEWVGGITPFDGFTDYADSVKGRFTISADTSKNTAYLQMNSLRAEDTAVYYCARGSWSWPAGYGYYQDYWGQGTLVTVSS
VL: not shown
B17: SRP1848-D09 (antibody, V domains shown)
VH: EVQLVESGGGLVQPGGSLRLSCAASGFNISNYYIHWVRQAPGKGLEWVGGISPNDGYTDYADSVKGRFTISADTSKNTAYLQMNSLRAEDTAVYYCARGSWSWRHGYGYYLDYWGQGTLVTVSS
VL: not shown
B18: SRP1848-C04 (antibody, V domains shown)
VH: EVQLVESGGGLVQPGGSLRLSCAASGFNIRHYSIHWVRQAPGKGLEWVGEIYPGPGNTDYADSVKGRFTISADTSKNTAYLQMNSLRAEDTAVYYCARGSLSWRAGYGYYLDYWGQGTLVTVSS
VL: not shown
B19: SRP1848-F02 (antibody, V domains shown)
VH: EVQLVESGGGLVQPGGSLRLSCAASGFNIRTYSIHWVRQAPGKGLEWVGSIFPNDGTTDYADSVKGRLTISADTSKNTAYLQMNSLRAEDTAVYYCARGSWSWQAGYGYYLDYWGQGTLVTVSS
VL: not shown
B20: SRP1848-C05 (antibody, V domains shown)
VH: EVQLVESGGGLVQPGGSLRLSCAASGFNIRKYSIHWVRQAPGKGLEWVGDIFPIDGINDYADSVKGRFTISADTSKNTAYLQMNSLRAEDTAVYYCARGSWSWKAGYGYYLDYWGQGTLVTVSS
VL: not shown
B21: SRP1848-D07 (antibody, V domains shown)
VH: EVQLVESGGGLVQPGGSLRLSCAASGFNISKYYIHWVRQAPGKGLEWVGGISPNDGYTDYADSVKGRFAISADTSKNTAYLQMNSLRAEDTAVYYCARGFWAWRSGYGYYLDYWGQGTLVTVSS
VL: not shown

human folate receptor alpha (hFOLR1), sequence (P15328 25-234 limits assumed): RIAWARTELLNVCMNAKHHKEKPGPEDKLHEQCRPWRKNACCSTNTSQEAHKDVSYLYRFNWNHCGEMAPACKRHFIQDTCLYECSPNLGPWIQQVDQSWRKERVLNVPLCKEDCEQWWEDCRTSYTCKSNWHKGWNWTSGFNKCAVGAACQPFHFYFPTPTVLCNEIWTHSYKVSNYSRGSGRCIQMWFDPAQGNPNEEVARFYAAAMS

The experiment concerns the target human folate receptor alpha (hFOLR1) (human, UniProt P15328 25-234). Put plainly: cell-based or functional assay.
With B1, the “Igrov 2° antibody cell killing Span” value amounted to 71%, the “KB 2° antibody cell killing EC50” value worked out at 0.04 nM and the “KB 2° antibody cell killing Span” value was determined as 97%.
B2: the “Igrov 2° antibody cell killing EC50” value turned out to be 0.015 nM, the “Igrov 2° antibody cell killing Span” value was determined as 74%, the “KB 2° antibody cell killing EC50” value worked out at 0.061 nM and the “KB 2° antibody cell killing Span” value stood at 94%.
The corresponding values for B3 are 0.012 nM, 54%, 0.016 nM and 90%.
On the same counts, the results for B4 are 0.018 nM, 69%, 0.047 nM and 91%.
For B5, the “Igrov 2° antibody cell killing EC50” value worked out at 0.026 nM, the “Igrov 2° antibody cell killing Span” value is 74%, the “KB 2° antibody cell killing EC50” value is 0.058 nM and the “KB 2° antibody cell killing Span” value worked out at 93%.
Regarding B6, the “Igrov 2° antibody cell killing Span” value is 73%, the “KB 2° antibody cell killing EC50” value was 0.055 nM and the “KB 2° antibody cell killing Span” value stood at 92%.
As to B7, the “Igrov 2° antibody cell killing EC50” value came out at 0.013 nM, the “Igrov 2° antibody cell killing Span” value amounted to 67%, the “KB 2° antibody cell killing EC50” value came to 0.065 nM and the “KB 2° antibody cell killing Span” value amounted to 93%.
On the same counts, the results for B8 are 0.068 nM, 77%, 0.38 nM and 97%.
The corresponding values for B9 are 0.035 nM, 72%, 0.074 nM and 93%.
The corresponding values for B10 are 0.025 nM, 71%, 0.046 nM and 93%.
B11: the “Igrov 2° antibody cell killing EC50” value worked out at 0.013 nM, the “Igrov 2° antibody cell killing Span” value worked out at 73%, the “KB 2° antibody cell killing EC50” value amounted to 0.059 nM and the “KB 2° antibody cell killing Span” value is 94%.
Regarding B12, the “Igrov 2° antibody cell killing EC50” value stood at 0.023 nM, the “Igrov 2° antibody cell killing Span” value was 68% and the “KB 2° antibody cell killing Span” value turned out to be 90%.
As for B13, the “Igrov 2° antibody cell killing EC50” value was 0.027 nM, the “Igrov 2° antibody cell killing Span” value is 78%, the “KB 2° antibody cell killing EC50” value was determined as 0.071 nM and the “KB 2° antibody cell killing Span” value is 95%.
On the same counts, the results for B14 are 0.027 nM, 71%, 0.034 nM and 93%.
On the same counts, the results for B15 are 0.036 nM, 75%, 0.057 nM and 96%.
The corresponding values for B16 are 0.029 nM, 72%, 0.088 nM and 92%.
With B17, the “Igrov 2° antibody cell killing EC50” value was determined as 0.023 nM, the “Igrov 2° antibody cell killing Span” value is 70%, the “KB 2° antibody cell killing EC50” value was 0.042 nM and the “KB 2° antibody cell killing Span” value was 91%.
The corresponding values for B18 are 0.016 nM, 68%, 0.006 nM and 94%.
On the same counts, the results for B19 are 0.009 nM, 54%, 0.054 nM and 92%.
On the same counts, the results for B20 are 0.021 nM, 62%, 0.073 nM and 92%.
Consider B21, for which the “Igrov 2° antibody cell killing EC50” value was 0.032 nM, the “Igrov 2° antibody cell killing Span” value turned out to be 71%, the “KB 2° antibody cell killing EC50” value stood at 0.075 nM and the “KB 2° antibody cell killing Span” value stood at 94%.
